Response data for eight variants are collected here from publication PMC4475061 (2015).

B1: ULK3 fused to the VP16 activation domain [human] / CHMP1A fused to the Gal4 DNA-binding domain [human] (parent complex)
chain 1: MAGPGWGPPRLDGFILTERLGSGTYATVYKAYAKKDTREVVAIKCVAKKSLNKASVENLLTEIEILKGIRHPHIVQLKDFQWDSDNIYLIMEFCAGGDLSRFIHTRRILPEKVARVFMQQLASALQFLHERNISHLDLKPQNILLSSLEKPHLKLADFGFAQHMSPWDEKHVLRGSPLYMAPEMVCQRQYDARVDLWSMGVILYEALFGQPPFASRSFSELEEKIRSNRVIELPLRPLLSRDCRDLLQRLLERDPSRRISFQDFFAHPWVDLEHMPSGESLGRATALVVQAVKKDQEGDSAAALSLYCKALDFFVPALHYEVDAQRKEAIKAKVGQYVSRAEELKAIVSSSNQALLRQGTSARDLLREMARDKPRLLAALEVASAAMAKEEAAGGEQDALDLYQHSLGELLLLLAAEPPGRRRELLHTEVQNLMARAEYLKEQVKMRESRWEADTLDKEGLSESVRSSCTLQ
chain 2: MDDTLFQLKFTAKQLEKLAKKAEKDSKAEQAKVKKALLQKNVECARVYAENAIRKKNEGVNWLRMASRVDAVASKVQTAVTMKGVTKNMAQVTKALDKALSTMDLQKVSSVMDRFEQQVQNLDVHTSVMEDSMSSATTLTTPQEQVDSLIMQIAEENGLEVLDQLSQLPEGASAVGESSVRSQEDQLSRRLAALRN
B2: CHMP1B WT fused to the Gal4 DNA-binding domain [human] / ULK3 fused to the VP16 activation domain [human] (parent complex)
chain 1: MEKHLFNLKFAAKELSRSAKKCDKEEKAEKAKIKKAIQKGNMEVARIHAENAIRQKNQAVNFLRMSARVDAVAARVQTAVTMGKVTKSMAGVVKSMDATLKTMNLEKISALMDKFEHQFETLDVQTQQMEDTMSSTTTLTTPQNQVDMLLQEMADEAGLDLNMELPQGQTGSVGTSVASAEQDELSQRLARLRDQV
chain 2: B1 chain 1
B3: CHMP1B WT fused to the Gal4 DNA-binding domain [human] / CHMP1A (positive-control partner of the Gal4-CHMP1B constructs in the two-hybrid assay) [human] (parent complex)
chain 1: B2 chain 1
chain 2: B1 chain 2
B4: ULK3 fused to the VP16 activation domain [human] / CHMP1B WT fused to the Gal4 DNA-binding domain [human] (parent complex)
chain 1: B1 chain 1
chain 2: B2 chain 1

The variants in the first assay derive from B1. Briefly: yeast two-hybrid (β-galactosidase activity); read off a plot.
Turning to chain 1 MAGPGWGPPRLDGFILTERLGSGTYATVYKAYAKKDTREVVAIKCVAKKSLNKASVENLLTEIEILKGIRHPHIVQLKDFQWDSDNIYLIMEFCAGGDLSRFIHTRRILPEKVARVFMQQLASALQFLHERNISHLDLKPQNILLSSLEKPHLKLADFGFAQHMSPWDEKHVLRGSPLYMAPEMVCQRQYDARVDLWSMGVILYEALFGQPPFASRSFSELEEKIRSNRVIELPLRPLLSRDCRDLLQRLLERDPSRRISFQDFFAHPWVDLEHMPSGESLGRATALVVQAVKKDQEGDSAAALSLYCKALDFFVPALHYEVDAQRKEAIKAKVGQYDSRAEELKAIVSSSNQALLRQGTSARDLLREMARDKPRLLAALEVASAAMAKEEAAGGEQDALDLYQHSLGELLLLLAAEPPGRRRELLHTEVQNLMARAEYLKEQVKMRESRWEADTLDKEGLSESVRSSCTLQ [chain 1 V338D], the response is around 0.075.

Another assay covers variants of B2. The description is as above.
As for chain 1 MEKHLFNLKFAAKELSRSAKKCDKEEKAEKAKIKKAIQKGNMEVARIHAENAIRQKNQAVNFLRMSARVDAVAARVQTAVTMGKVTKSMAGVVKSMDATLKTMNLEKISALMDKFEHQFETLDVQTQQMEDTMSSTTTLTTPQNQVDMLLQEMADEAGLDLNMELPQGQTGSVGTSVASAEQDELSQRLAAAADQV [chain 1 R191A, chain 1 L192A, chain 1 R193A], the response is around 0.028.

Variants of B3 are the subject of a further assay. The assay is described as above.
As for chain 1 MEKHLFNLKFAAKELSRSAKKCDKEEKAEKAKIKKAIQKGNMEVARIHAENAIRQKNQAVNFLRMSARVDAVAARVQTAVTMGKVTKSMAGVVKSMDATLKTMNLEKISALMDKFEHQFETLDVQTQQMEDTMSSTTTLTTPQNQVDMLLQEMADEAGLDLNMELPQGQTGSVGTSVASAEQDELSQRLARLRAAA [chain 1 D194A, chain 1 Q195A, chain 1 V196A], the response was around 0.48.

In the case of chain 1 MEKHLFNLKFAAKELSRSAKKCDKEEKAEKAKIKKAIQKGNMEVARIHAENAIRQKNQAVNFLRMSARVDAVAARVQTAVTMGKVTKSMAGVVKSMDATLKTMNLEKISALMDKFEHQFETLDVQTQQMEDTMSSTTTLTTPQNQVDMLLQEMADEAGLDLNMELPQGQTGSVGTSVASAEQDEAAARLARLRDQV [chain 1 L185A, chain 1 S186A, chain 1 Q187A], the response was around 0.62.

As to chain 1 MEKHLFNLKFAAKELSRSAKKCDKEEKAEKAKIKKAIQKGNMEVARIHAENAIRQKNQAVNFLRMSARVDAVAARVQTAVTMGKVTKSMAGVVKSMDATLKTMNLEKISALMDKFEHQFETLDVQTQQMEDTMSSTTTLTTPQNQVDMLLQEMADEAGLDLNMELPQGQTGSVGTSVASAEQDELSQRLAAAADQV [chain 1 R191A, chain 1 L192A, chain 1 R193A], the response was around 0.54.

Consider chain 1 MEKHLFNLKFAAKELSRSAKKCDKEEKAEKAKIKKAIQKGNMEVARIHAENAIRQKNQAVNFLRMSARVDAVAARVQTAVTMGKVTKSMAGVVKSMDATLKTMNLEKISALMDKFEHQFETLDVQTQQMEDTMSSTTTLTTPQNQVDMLLQEMADEAGLDLNMELPQGQTGSVGTSVASAEQDELSQAAARLRDQV [chain 1 R188A, chain 1 L189A], for which the response was around 0.77.

The variants in the next assay derive from B4. Described as above.
Consider chain 1 MAGPGWGPPRLDGFILTERLGSGTYATVYKAYAKKDTREVVAIKCVAKKSLNKASVENLLTEIEILKGIRHPHIVQLKDFQWDSDNIYLIMEFCAGGDLSRFIHTRRILPEKVARVFMQQLASALQFLHERNISHLDLKPQNILLSSLEKPHLKLADFGFAQHMSPWDEKHVLRGSPLYMAPEMVCQRQYDARVDLWSMGVILYEALFGQPPFASRSFSELEEKIRSNRVIELPLRPLLSRDCRDLLQRLLERDPSRRISFQDFFAHPWVDLEHMPSGESLGRATALVVQAVKKDQEGDSAAALSLYCKALDFFVPALHYEVDAQRKEAIKAKVGQYVSRAEELKAIVSSSNQALLRQGTSARDLLREMARDKPRLLAALEVASAAMAKEEAAGGEQDALDLYQHSLGELLLLLAAEPPGRRRELLHTEVQNLDARAEYLKEQVKMRESRWEADTLDKEGLSESVRSSCTLQ [chain 1 M434D], for which the response was around 0.051.

In the case of chain 1 MAGPGWGPPRLDGFILTERLGSGTYATVYKAYAKKDTREVVAIKCVAKKSLNKASVENLLTEIEILKGIRHPHIVQLKDFQWDSDNIYLIMEFCAGGDLSRFIHTRRILPEKVARVFMQQLASALQFLHERNISHLDLKPQNILLSSLEKPHLKLADFGFAQHMSPWDEKHVLRGSPLYMAPEMVCQRQYDARVDLWSMGVILYEALFGQPPFASRSFSELEEKIRSNRVIELPLRPLLSRDCRDLLQRLLERDPSRRISFQDFFAHPWVDLEHMPSGESLGRATALVVQAVKKDQEGDSAAALSLYCKALDFFVPALHYEVDAQRKEAIKAKVGQYDSRAEELKAIVSSSNQALLRQGTSARDLLREMARDKPRLLAALEVASAAMAKEEAAGGEQDALDLYQHSLGELLLLLAAEPPGRRRELLHTEVQNLMARAEYLKEQVKMRESRWEADTLDKEGLSESVRSSCTLQ [chain 1 V338D], the response is around 0.061.
